Data as given in US20070004909A1.

Target: soluble CD16A (sCD16A) (UniProt P08637)
Assay: SPR (BIAcore 1000); receptor amine-coupled (~1000 RU), scFv as analyte; units not printed (koff/kon implies nM)

Sequence of soluble CD16A (sCD16A) (P08637 17-208 limits assumed): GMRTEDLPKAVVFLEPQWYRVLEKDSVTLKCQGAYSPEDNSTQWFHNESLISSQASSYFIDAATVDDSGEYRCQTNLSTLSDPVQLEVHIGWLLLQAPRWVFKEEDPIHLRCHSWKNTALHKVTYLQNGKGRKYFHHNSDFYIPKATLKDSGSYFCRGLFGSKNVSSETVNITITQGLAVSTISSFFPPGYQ

- Kd: 38.7 nM
Substance: h3G8 scFv
